In patent US20260104424A1, “METHODS, SYSTEMS AND KITS FOR IDENTIFYING BIOACTIVE COMPOUNDS AND THERAPEUTIC METHODS AND COMPOSITIONS” (priority 2022, published 2026):
Entries after “also recorded” stand apart in the source; their conditions may differ.

Key:
[1] = molecular target: T1, CXCR2 (Homo sapiens, UniProt P25025); assay: M13 phage binding and screening against HEK293T cells overexpressing CXCR2; settings: negative control protein on M13 phage
T1 sequence (P25025 1-360): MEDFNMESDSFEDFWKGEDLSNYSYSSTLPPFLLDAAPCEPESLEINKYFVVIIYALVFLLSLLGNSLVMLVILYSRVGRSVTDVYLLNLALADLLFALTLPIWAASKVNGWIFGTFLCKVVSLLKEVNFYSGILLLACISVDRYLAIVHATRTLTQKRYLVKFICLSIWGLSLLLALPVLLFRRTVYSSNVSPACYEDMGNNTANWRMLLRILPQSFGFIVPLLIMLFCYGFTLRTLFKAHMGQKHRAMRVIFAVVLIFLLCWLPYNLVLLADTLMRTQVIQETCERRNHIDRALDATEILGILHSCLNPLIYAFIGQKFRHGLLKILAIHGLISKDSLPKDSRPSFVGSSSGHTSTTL

[2] = molecular target: T2, EGFR (Homo sapiens, UniProt P00533); assay: Single-round M13 phage library screening against EGFR (Ig-EGFR beads, HEK293T cells overexpressing EGFR); assay type: binding; settings: for identification as hit in screen against Ig-EGFR: AT, MV and secretome libraries, versus Isotype Ig, triplicate; for identification as hit in secretome library screen: beads coated with Ig-EGFR and HEK293T cells overexpressing EGFR
T2 construct: representing the extracellular domain of the target receptor fuse to the Fc region of immunoglobulin G; purchased R&D Systems 344-ER
Description: For the phage immunoprecipitation-based ligand discovery, 1 μg of EGFR-Fc (R&D Systems Cat No. 344-ER) and Etanercept (Mippipore Sigma Cat No. 185243-69-0) chimera proteins, representing the extracellular domain of the target receptor fuse to the Fc region of immunoglobulin G, was incubated with the pre-blocked phage library overnight at 4° C. The following day, 20 μL of protein G beads (ThermoFisher Cat No. 10009D) were added to the phage-chimera mixture and rotated for 4 hours at 4° C. to immunocapture (IP) all chimeras. The beads were then washed three times with PBS containing 0.01% NP-40 and stored in −80° C. before sequencing.

[3] = molecular target: T3, MrgprX4 (Homo sapiens, UniProt Q96LA9); assay: MrgprX4 calcium signaling assay; assay type: cell-based; set-up: activation of MrgprX4 (agonist activity): dose or concentration left out as unconfirmed
T3 construct: GFP; expressed in transfected cells; host or cells: HEK293-MrgprX4-GFP
Description: The HEK293-MrgprX4-GFP and HEK293 cell lines were dissociated with 0.25% Trypsin (Gibco, Cat No. 25200-056) and collected after 1-2 minutes incubation. The harvested cells were then seeded at a density of 2.5E+04 cells/well in a 96-well half-area flat clear bottom black plate (Greiner Bio-One, Cat No. 675090) that was pre-treated with 0.1 mg/ml poly-D-lysine. The following day, cells were stained with FLIPR Calcium 5 dye (Molecular Devices, Cat No. R8186) in a loading buffer composed of Hanks' balanced salt solution (HBSS) with 20 mM HEPES, adjusted to pH 7.4. After a 30-minute incubation period at 37° C., TFPI (Acro Biosystems Cat No. TFI-H5226) was introduced, and the cells were incubated for an additional hour at 37° C. Subsequently, UDCA or the buffer control were automatically dispensed into the wells, which were immediately imaged using the Flexstation 3 system (Molecular Devices).

T3 sequence (Q96LA9 whole entry): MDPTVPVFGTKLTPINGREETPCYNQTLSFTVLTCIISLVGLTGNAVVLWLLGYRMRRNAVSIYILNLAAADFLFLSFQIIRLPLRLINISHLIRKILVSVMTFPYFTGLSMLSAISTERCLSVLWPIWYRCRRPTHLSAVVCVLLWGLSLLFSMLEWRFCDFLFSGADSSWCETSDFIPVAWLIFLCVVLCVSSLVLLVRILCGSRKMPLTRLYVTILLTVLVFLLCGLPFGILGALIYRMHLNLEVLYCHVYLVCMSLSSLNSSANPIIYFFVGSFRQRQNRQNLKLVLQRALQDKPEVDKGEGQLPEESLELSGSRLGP

## $-Lactoglobulin: negative control protein displayed on phage in the CXCR2 binding test
[1]
  non-specific binding to HEK293T-CXCR2 cells: low non-specific binding

## betacellulin [BTC]
[2]
  identification as hit in screen against Ig-EGFR: rediscovered; also recorded: identified
  identification as hit in secretome library screen: robustly identified

## heparin binding EGF-like growth factor [HBEGF]
[2]
  identification as hit in screen against Ig-EGFR: rediscovered
  identification as hit in secretome library screen: robustly identified
[2]; listed as HB-EGF
  identification as hit in screen against Ig-EGFR: identified

## osteoprotegerin [OPG, reference compound]
[3]; negative control protein, 1 uM (n=4)
  inhibitory activity on MrgprX4: no obvious inhibitory activity

## tissue factor pathway inhibitor [TFPI]
[3]
  activation of MrgprX4 (agonist activity): does not activate
[3]; UDCA (EC80), TFPI at 1 and 0.3 uM, n=7
  inhibition of activation by UDCA: inhibiting the activation of UDCA
[3]; calcium-signaling assay
  concentrations down to which UDCA-induced activation of MrgprX4 was effectively inhibited: 0.3 µM
[3]; in the presence of the MrgprX4 activator UDCA
  concentration at which MrgprX4 activation was inhibited: 300 nM

## transforming growth factor-A [TGFA]
[2]
  identification as hit in screen against Ig-EGFR: rediscovered
  identification as hit in secretome library screen: robustly identified
[2]; listed as TGFa
  identification as hit in screen against Ig-EGFR: identified
